Results as given in patent US20230303690A1 (published 2023).
Read-outs that look alike come from different tables or passages of the source.

T1: LAG3 Protein, Human, Recombinant (His Tag) (Sino Biological Catalog No. 16498-H08H) (human, UniProt P18627 23-450)
T1 construct: Bought protein; also called hLAG3-His; LAG3-His; not shown: His tag
T1 sequence (looked up): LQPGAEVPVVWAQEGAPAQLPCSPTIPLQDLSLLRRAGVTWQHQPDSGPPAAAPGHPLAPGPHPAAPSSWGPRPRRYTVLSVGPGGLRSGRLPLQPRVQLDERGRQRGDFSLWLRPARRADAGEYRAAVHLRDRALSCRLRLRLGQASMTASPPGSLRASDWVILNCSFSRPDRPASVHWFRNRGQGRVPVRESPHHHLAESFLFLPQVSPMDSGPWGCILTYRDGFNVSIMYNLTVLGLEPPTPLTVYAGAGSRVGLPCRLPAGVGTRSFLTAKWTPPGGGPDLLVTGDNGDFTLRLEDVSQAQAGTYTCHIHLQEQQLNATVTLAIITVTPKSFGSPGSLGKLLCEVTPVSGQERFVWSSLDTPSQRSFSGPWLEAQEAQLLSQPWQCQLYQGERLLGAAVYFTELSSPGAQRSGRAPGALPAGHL

T2: human LAG3 expressed on cells (human, UniProt P18627 23-525)
T2 construct: whole, on cells
T2 sequence (looked up): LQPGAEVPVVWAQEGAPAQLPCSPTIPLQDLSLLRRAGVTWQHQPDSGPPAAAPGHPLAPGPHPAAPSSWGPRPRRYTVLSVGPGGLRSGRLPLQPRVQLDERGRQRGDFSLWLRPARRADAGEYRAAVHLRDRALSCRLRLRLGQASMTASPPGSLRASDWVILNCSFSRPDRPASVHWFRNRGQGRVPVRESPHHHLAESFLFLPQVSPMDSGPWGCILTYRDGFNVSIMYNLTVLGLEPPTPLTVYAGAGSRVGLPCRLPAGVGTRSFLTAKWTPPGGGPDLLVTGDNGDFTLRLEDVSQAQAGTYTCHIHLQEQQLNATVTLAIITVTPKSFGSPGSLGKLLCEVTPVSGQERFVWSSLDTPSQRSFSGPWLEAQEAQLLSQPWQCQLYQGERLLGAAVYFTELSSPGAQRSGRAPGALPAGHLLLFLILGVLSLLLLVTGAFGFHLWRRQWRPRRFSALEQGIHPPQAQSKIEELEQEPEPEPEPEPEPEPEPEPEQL


Experiments:
[1] = biological target: T1, LAG3 Protein, Human, Recombinant (His …); assay: ELISA, coated hLAG3-His
Experimental: (§1) Plates were coated with 100 µL per well of Coating Solution, and then covered, and incubated overnight (12-18 hours) at 2-8° C. The wells were aspirated and washed 1 time with >200 µL of Wash buffer per well, inverted and tapped on absorbent paper to remove excess liquid. The plates were blocked with 200 µL per well with Blocking buffer (1×PBS+4% milk) for 1 hour at room temperature, aspirated, inverted, and tapped on absorbent paper to remove excess liquid. Standards and sample dilutions were prepared in Blocking buffer. 100 µL of standards (in duplicate) and samples were pipetted into designated wells. After incubation for 1 hour at room temperature with gentle continual shaking (~500 rpm), the wells were aspirate and washed 3 times with >200 µL of Wash buffer per well, inverted and tapped on absorbent paper to remove excess liquid.
(§2) The primary antibody solution was diluted with Blocking buffer. See Table 14 for recommended primary antibody dilution. 100 µL of the primary antibody solution was added into each well and incubated for 2 hours at room temperature with gentle continual shaking (~500 rpm). The wells were aspirated and washed 3 times with >200 µL of Wash buffer per well, inverted and tapped on absorbent paper to remove excess liquid. The working solution of secondary antibody was made with Blocking buffer by diluting the secondary antibody by 2,500 times. 100 µL of secondary antibody working solution was added into each well and incubated for 30 minutes at room temperature. The wells were aspirated and washed 5 times with >200 µL of Wash buffer per well, inverted and tapped on absorbent paper to remove excess liquid. 100 µL of TMB substrate solution (Biopanda, TMB-S-004) was added to each well and incubated for 30 minutes at room temperature. 100 µL of Stop solution (Solarbio, C1058) was added to each well. Absorbance at 450 nm was measured within 30 minutes of adding Stop solution. Results were calculated using a log-log or 4-parameter curve fit.

[2] = biological target: human LAG3 expressed on cells (human) (UniProt P18627); assay: cell ELISA, 293T-LAG3 cells
[3] = biological target: T1, LAG3 Protein, Human, Recombinant (His …); assay: ELISA, coated hLAG3-His; remark: listed apart in the source
Experimental: as §1
as §2, with “well.” for “well. Absorbance at 450 nm was measured within 30 minutes of adding Stop solution. Results were calculated using a log-log or 4-parameter curve fit.”

[4] = biological target: T2, human LAG3 expressed on cells; assay: cell ELISA, 293T-hLAG3 cells
Experimental: Each well was treated with stimulants. The cells were then fixed and blocked with Blocking buffer. The Primary antibodies were added. The wells were washed and a HRP-conjugated secondary antibody was added. The wells were washed with 1x PBS and a solution containing TMB (Biopanda, TMB-S-004) was added. The TMB reacted with HRP to change the color thereof from colorless to blue. An acid stop solution (Solarbio, C1058) was then added to stop the reaction and change the blue color to yellow.
Materials are listed below: [0072] […] 2) Blocking buffer: 1×PBS+3% BSA (Sigma, B2064); [0074] […] [0075] 4) Secondary antibody: Goat anti-human IgG1 Fc antibody, HRP (1:2500, invitrogen, A18817). [0076]

[5] = biological target: T2, human LAG3 expressed on cells; assay: FACS, 293T-hLAG3 cells
Experimental: 5) The prepared antibody samples were added to the 96-well plate according to the platemap, the cells were resuspended and incubate at 4° C. for 1 hour.
7) 3% BSA/1xPBS was used to dilute Goat polyclonal Secondary Antibody to Human IgG-Fc (DyLight® 650) to the desired concentration (1:200), in which the cells were resuspended and incubated at 4° C. for 1 hour.
9) The cells were resuspended in 200 µl of 3% BSA/1xPBS, and performed flow cytometric testing by Shsti Biotech Inc.

| EC50 [1] | OD450 at 0.061 nM [1] | OD450 at 0.1829 nM [1] | OD450 at 0.5487 nM [1] | OD450 at 1.6461 nM [1] | OD450 at 4.9383 nM [1] | OD450 at 14.815 nM [1] | OD450 at 44.445 nM [1] | OD450 at 133.335 nM [1] | EC50 [3] | OD450 at 0.004572 ug/ml [3] | OD450 at 0.013717 ug/ml [3] | OD450 at 0.041152 ug/ml [3] | OD450 at 0.123457 ug/ml [3] | OD450 at 0.37037 ug/ml [3] | OD450 at 1.111111 ug/ml [3] | OD450 at 3.333333 ug/ml [3] | OD450 at 10 ug/ml [3] | EC50 [4] | OD450 at 0.0045725 ug/ml [4] | Binder | other results |
| --- | --- | --- | --- | --- | --- | --- | --- | --- | --- | --- | --- | --- | --- | --- | --- | --- | --- | --- | --- | --- | --- |
| 452 nM | 0.036 | 0.04 | 0.038 | 0.048 | 0.062 | 0.084 | 0.114 | 0.163 | – | – | – | – | – | – | – | – | – | – | – | sdAb No. 25-B5 (VHH, Humanized sdAb No. 25; not shown: Fc part implied by anti-human IgG1 Fc detection) VHH: QVQLVESGGGLVKPGGSLRLSCAASGSIESFSFMGWYRQAPGKQREWVAGFTGAASLSFSTYTDAVKGRFTISRDNAKNSLYLQMNSLRAEDTAVYYCNVDPWSQSWPGRYWGQGTTVTVSS | OD450 at 0.122 nM [2]: 0.086; OD450 at 0.366 nM [2]: 0.113; OD450 at 1.097 nM [2]: 0.124; OD450 at 3.292 nM [2]: 0.196; OD450 at 9.877 nM [2]: 0.21; OD450 at 29.63 nM [2]: 0.254; OD450 at 88.89 nM [2]: 0.311; OD450 at 266.67 nM [2]: 0.608 |
| – | – | – | – | – | – | – | – | – | 3.28 nM | 0.04 | 0.043 | 0.063 | 0.36 | 1.42 | 1.8 | 2 | 1.95 | 1.4 nM | 0.076 | sdAb No. 27-H1 (VHH, Modified sdAb No. 27 (CDR2 DG to DA); not shown: Fc part implied by anti-human IgG1 Fc detection) VHH: QVQLVESGGGLVQPGGSLRLSCAASGFTLDYYAIGWFRQAPGKEREGVSCIRSSDASTYYADSVKGRFTISSDNTKNTVYLQMNSLKPEDTAVYYCATDRYSDCRGPYENWGQGTQVTVSS | OD450 at 0.0137174 ug/ml [4]: 0.171; OD450 at 0.0411523 ug/ml [4]: 0.359; OD450 at 0.1234568 ug/ml [4]: 0.719; OD450 at 0.3703704 ug/ml [4]: 1.08; OD450 at 1.111111 ug/ml [4]: 1.17; OD450 at 3.333333 ug/ml [4]: 1.24; OD450 at 10 ug/ml [4]: 1.33 |
| 2.08 nM | 0.038 | 0.057 | 0.212 | 1.15 | 2.53 | 2.88 | 2.91 | 2.99 | – | – | – | – | – | – | – | – | – | – | – | sdAb No. 27-H1B3 (VHH, Humanized sdAb No. 27-H1; not shown: Fc part implied by anti-human IgG Fc detection) VHH: QVQLVESGGGLVQPGGSLRLSCAASGFTLDYYAIGWFRQAPGKEREGVSCIRSSDASTYYADSVKGRFTISSDNSKNTVYLQMNSLRAEDTAVYYCATDRYSDCRGPYENWGQGTMVTVSS | EC50 [5]: 1.18 nM; FACS signal at 0.061 nM [5]: 234; FACS signal at 0.1829 nM [5]: 585; FACS signal at 0.5487 nM [5]: 1420; FACS signal at 1.6461 nM [5]: 2810; FACS signal at 4.9383 nM [5]: 3820; FACS signal at 14.815 nM [5]: 4360; FACS signal at 44.445 nM [5]: 4620; FACS signal at 133.335 nM [5]: 4630 |
| – | – | – | – | – | – | – | – | – | 3.73 nM | 0.038 | 0.043 | 0.063 | 0.334 | 1.43 | 1.96 | 2.08 | 2.27 | 1.55 nM | 0.075 | sdAb No. 27-H2 (VHH, Modified sdAb No. 27 (CDR2 DG to EG); not shown: Fc part implied by anti-human IgG1 Fc detection) VHH: QVQLVESGGGLVQPGGSLRLSCAASGFTLDYYAIGWFRQAPGKEREGVSCIRSSEGSTYYADSVKGRFTISSDNTKNTVYLQMNSLKPEDTAVYYCATDRYSDCRGPYENWGQGTQVTVSS | OD450 at 0.0137174 ug/ml [4]: 0.152; OD450 at 0.0411523 ug/ml [4]: 0.314; OD450 at 0.1234568 ug/ml [4]: 0.626; OD450 at 0.3703704 ug/ml [4]: 1.07; OD450 at 1.111111 ug/ml [4]: 1.16; OD450 at 3.333333 ug/ml [4]: 1.14; OD450 at 10 ug/ml [4]: 1.2 |
